Results: publication PMC8471396
Several values for one entry are separate records, joined by “and”; a condition that tells them apart may be missing. Equal entries are not always repeated.

How the values were obtained:
[1] = molecular target: succinate-acetate permease (SatP) from Citrobacter koseri ATCC BAA-895 (Citrobacter koseri ATCC BAA-895); assay: cross-linking; SatP in DOPC/DOPG liposomes, 10 uM protein in 20 mM HEPES pH 7.3; 0.5 mM BS3 (DMSO as control), room temperature, 1 h; 4-20% gradient SDS-PAGE
[2] = molecular target: succinate-acetate permease (SatP) from Citrobacter koseri ATCC BAA-895 (Citrobacter koseri ATCC BAA-895); assay: SDS-PAGE and Western blot of oligomer bands; SatP in SMA native nanodiscs from E. coli membranes, after the nickel affinity column; no cross-linker; anti-His Western blot

In the case of “succinate-acetate permease (SatP) from Citrobacter koseri ATCC BAA-895 (natural protein)”, the stoichiometry N [1] was 6 and 5 and 4 and the stoichiometry N [2] was 6.
